Entries after “also recorded” stand apart in the source; their conditions may differ.
Experiments:
[1] = target: T1, binary FGFR1c-Klotho complex (UniProt O35082+P11362); test: SPR competition: FGFR1c-Klotho binding to immobilized FGF23^28-251; design: species or system human FGFR1c, murine Klotho; conditions: FGF21^168-209 at molar ratios of 6:1 and 10:1
T1 construct: The ectodomain of murine Klotho (A35 to K982) was purified from culture media; FLAG (C); made in house; host or cells: E. coli (FGFR1c, FGF23); HEK293 (Klotho ectodomain)
T1 sequence (P11362 142-365): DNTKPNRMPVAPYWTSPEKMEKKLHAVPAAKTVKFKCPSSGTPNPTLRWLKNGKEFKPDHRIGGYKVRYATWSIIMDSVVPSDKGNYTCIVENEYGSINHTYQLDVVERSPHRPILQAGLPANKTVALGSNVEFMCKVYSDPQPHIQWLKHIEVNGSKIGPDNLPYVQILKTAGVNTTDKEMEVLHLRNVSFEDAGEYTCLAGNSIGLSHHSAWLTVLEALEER
T1 sequence (O35082 35-982): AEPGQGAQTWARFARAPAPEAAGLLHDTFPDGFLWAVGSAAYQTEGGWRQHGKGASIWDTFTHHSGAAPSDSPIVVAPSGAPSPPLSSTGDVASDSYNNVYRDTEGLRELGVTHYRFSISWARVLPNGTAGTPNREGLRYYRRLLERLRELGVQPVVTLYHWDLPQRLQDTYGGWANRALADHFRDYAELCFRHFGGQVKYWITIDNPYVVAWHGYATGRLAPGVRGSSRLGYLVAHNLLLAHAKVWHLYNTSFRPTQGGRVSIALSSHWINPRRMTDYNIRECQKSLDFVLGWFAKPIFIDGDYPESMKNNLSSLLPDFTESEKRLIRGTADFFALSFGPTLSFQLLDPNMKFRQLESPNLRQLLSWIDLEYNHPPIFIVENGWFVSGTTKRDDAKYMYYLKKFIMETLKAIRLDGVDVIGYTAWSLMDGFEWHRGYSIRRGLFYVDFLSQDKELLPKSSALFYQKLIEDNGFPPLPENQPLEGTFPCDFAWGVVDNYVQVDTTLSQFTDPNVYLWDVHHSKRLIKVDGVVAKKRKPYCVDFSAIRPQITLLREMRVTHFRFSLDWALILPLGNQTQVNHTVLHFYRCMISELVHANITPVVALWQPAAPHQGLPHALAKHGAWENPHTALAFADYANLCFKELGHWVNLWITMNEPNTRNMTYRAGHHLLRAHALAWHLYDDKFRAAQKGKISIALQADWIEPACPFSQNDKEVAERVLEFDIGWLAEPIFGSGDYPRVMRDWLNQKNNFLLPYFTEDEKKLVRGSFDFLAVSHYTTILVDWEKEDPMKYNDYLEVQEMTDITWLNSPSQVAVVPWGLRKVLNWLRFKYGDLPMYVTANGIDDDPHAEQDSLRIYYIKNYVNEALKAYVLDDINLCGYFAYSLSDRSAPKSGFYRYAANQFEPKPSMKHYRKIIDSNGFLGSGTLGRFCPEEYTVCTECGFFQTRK
Protocol: A variety of interaction or binding assays can be used to determine that an agent specifically binds the binary FGFR-Klotho complex, such as the SPR interaction analysis described below. One aspect of the present invention utilizes SPR analysis of FGF23 protein/peptide binding to the binary FGFR-Klotho complex. The SPR analysis involved FGF23 protein/peptide immobilization by amine coupling on flow channels of a chip. Proteins were injected over the chip at a flow rate of 50 μl min^−1, and at the end of each protein injection (180 s), HBS-EP buffer (10 mM HEPES-NaOH, pH 7.4, 150 mM NaCl, 3 mM EDTA, 0.005% (v/v) polysorbate 20; 50 μl min^−1) was flowed over the chip to monitor dissociation for 180 s. The chip surface was then regenerated by injecting 50 μl of 2.0 M NaCl in 10 mM sodium acetate, pH 4.5. […] For each protein injection over a FGF23 protein/peptide chip, the nonspecific responses from the FHF1B control flow channel were subtracted from the responses recorded for the flow channel onto which FGF23 protein/peptide was immobilized. To analyze FGF23 binding to the binary FGFR1c-Klotho complex, FGF23^28-251 was coupled to a chip, and increasing concentrations of 1:1 complex of the ectodomains of FGFR1c and Klotho in HBS-EP buffer were passed over the chip. To measure binding of the C-terminal tail of FGF23 to the binary FGFR1c-Klotho complex, FGF23^180-251 was immobilized on a chip, and increasing concentrations of 1:1 complex of the ectodomains of FGFR1c and Klotho in HBS-EP buffer were passed over the chip. To examine whether the C-terminal tail of FGF23 can compete with full-length FGF23 for binding to the binary FGFR1c-Klotho complex, FGF23^28-251 was immobilized on a chip. Increasing concentrations of FGF23^180-251 were mixed with a fixed concentration of 1:1 complex of the ectodomains of FGFR1c and Klotho in HBS-EP buffer, and the mixtures were passed over the chip. As a control, competition of FGF23 in solution with immobilized FGF23 for binding to the binary FGFR1c-Klotho complex was studied. Increasing concentrations of FGF23^28-251 were mixed with a fixed concentration of 1:1 complex of the ectodomains of FGFR1c and Klotho in HBS-EP buffer, and the mixtures were passed over the FGF23 chip. Competition of the FGF23 C-terminal tail peptide with full-length FGF23 for binding to the binary FGFR1c-Klotho complex was also studied using the “reverse” SPR assay format, where FGF23^180-251 was immobilized on a chip and mixtures of a fixed concentration of 1:1 complex of the ectodomains of FGFR1c and Klotho with increasing concentrations of FGF23^28-251 were passed over the chip. As a control, competition of FGF23 C-terminal tail peptide in solution with immobilized FGF23 C-terminal tail peptide for binding to the binary FGFR1c-Klotho complex was analyzed. Increasing concentrations of FGF23^180-251 were mixed with a fixed concentration of 1:1 complex of the ectodomains of FGFR1c and Klotho in HBS-EP buffer, and the mixtures were passed over the FGF23^180-251 chip. To verify the specificity of the interaction between the FGF23 C-terminal tail and the FGFR1c-Klotho complex, FGF23^28-251 was immobilized on a chip. Increasing concentrations of FGF21^168-209 were mixed with a fixed concentration of 1:1 complex of the ectodomains of FGFR1c and Klotho in HBS-EP buffer, and the mixtures were passed over the chip. In addition, the ability of the FGF23 C-terminal tail peptide to interfere with binary complex formation between βKlotho and either FGF19 or FGF21 was tested, as was its ability to interfere with ternary complex formation between βKlotho, FGFR, and either FGF19 or FGF21. FGF19^23-216 and FGF21^29-209 were immobilized on two flow channels of a chip. FGF23^180-251 and the ectodomain of βKlotho were mixed at a molar ratio of 2:1, and the mixture was injected over the chip. Next, FGF23^180-251 and the 1:1 complex of the ectodomains of FGFR1c and βKlotho were mixed at a molar ratio of 10:1, and the mixture was passed over the FGF19/FGF21 chip. […]

FGFR1c = target: T2, FGFR1c (Homo sapiens, UniProt P11362); test: SPR: FGFR1c ectodomain passed over immobilized Klotho ectodomain; assay type: binding; conditions: 25° C., HBS-EP buffer, read-out: dissociation constant (KD) of the FGFR1c-Klotho interaction
T2 construct: made in house; host or cells: E. coli
T2 sequence (P11362 142-365): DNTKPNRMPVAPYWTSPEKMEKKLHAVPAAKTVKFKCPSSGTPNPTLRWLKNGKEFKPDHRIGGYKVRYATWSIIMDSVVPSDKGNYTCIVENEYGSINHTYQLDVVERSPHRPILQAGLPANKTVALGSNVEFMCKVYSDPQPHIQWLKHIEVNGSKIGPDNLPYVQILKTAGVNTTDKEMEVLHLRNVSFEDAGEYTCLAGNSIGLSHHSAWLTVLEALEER
Protocol: Surface plasmon resonance (SPR) spectroscopy experiments were performed on a Biacore 2000 instrument (Biacore AB), and FGF23-FGFR1c-Klotho interactions were studied at 25° C. in HBS-EP buffer (10 mM HEPES-NaOH, pH 7.4, 150 mM NaCl, 3 mM EDTA, 0.005% (v/v) polysorbate 20). Proteins were immobilized by amine coupling on flow channels of research grade CM5 chips (Biacore AB). Proteins were injected over a CM5 chip at a flow rate of 50 μl min^−1, and at the end of each protein injection (180 s), HBS-EP buffer (50 μl min^−1) was flowed over the chip to monitor dissociation for 180 s. The chip surface was then regenerated by injecting 50 μl of 2.0 M NaCl in 10 mM sodium acetate, pH 4.5. […] For each protein injection over a Klotho chip, the nonspecific responses from the β-glucuronidase control flow channel were subtracted from the responses recorded for the Klotho flow channel. Similarly, for each protein injection over a FGF chip, the nonspecific responses from the FHF1B control flow channel were subtracted from the responses recorded for the FGF flow channel. […]
To analyze Klotho binding to FGFR1c, Klotho ectodomain was immobilized on a chip (˜29-35 fmole/mm^2 of flow channel). […] Maximal equilibrium responses were plotted against the concentrations of FGFR1c ectodomain (FIG. 1B), and from the fitted saturation binding curve the equilibrium dissociation constant (KD) was calculated. […]

Molecule	inhibition of FGFR1c-Klotho binding to immobilized FGF23^28-251 [1]	Kd (FGFR1c) [nM]
FGF21^168-209: 42-amino acid long C-terminal tail of FGF21 (P168 to S209), expressed in E. coli (PGLPPALPEPPGILAPQPPDVGSSDPLSMVGPSQGRSPSYAS; left off: small tags and cut ends) [reference compound]	failed to inhibit; also recorded: no inhibition	–
Klotho: ectodomain of murine Klotho (A35 to K982) purified from HEK293 culture media (protein, left off: small tags and cut ends, ectodomain of murine Klotho (A35 to K982) purified from HEK293 culture media) AEPGQGAQTWARFARAPAPEAAGLLHDTFPDGFLWAVGSAAYQTEGGWRQHGKGASIWDTFTHHSGAAPSDSPIVVAPSGAPSPPLSSTGDVASDSYNNVYRDTEGLRELGVTHYRFSISWARVLPNGTAGTPNREGLRYYRRLLERLRELGVQPVVTLYHWDLPQRLQDTYGGWANRALADHFRDYAELCFRHFGGQVKYWITIDNPYVVAWHGYATGRLAPGVRGSSRLGYLVAHNLLLAHAKVWHLYNTSFRPTQGGRVSIALSSHWINPRRMTDYNIRECQKSLDFVLGWFAKPIFIDGDYPESMKNNLSSLLPDFTESEKRLIRGTADFFALSFGPTLSFQLLDPNMKFRQLESPNLRQLLSWIDLEYNHPPIFIVENGWFVSGTTKRDDAKYMYYLKKFIMETLKAIRLDGVDVIGYTAWSLMDGFEWHRGYSIRRGLFYVDFLSQDKELLPKSSALFYQKLIEDNGFPPLPENQPLEGTFPCDFAWGVVDNYVQVDTTLSQFTDPNVYLWDVHHSKRLIKVDGVVAKKRKPYCVDFSAIRPQITLLREMRVTHFRFSLDWALILPLGNQTQVNHTVLHFYRCMISELVHANITPVVALWQPAAPHQGLPHALAKHGAWENPHTALAFADYANLCFKELGHWVNLWITMNEPNTRNMTYRAGHHLLRAHALAWHLYDDKFRAAQKGKISIALQADWIEPACPFSQNDKEVAERVLEFDIGWLAEPIFGSGDYPRVMRDWLNQKNNFLLPYFTEDEKKLVRGSFDFLAVSHYTTILVDWEKEDPMKYNDYLEVQEMTDITWLNSPSQVAVVPWGLRKVLNWLRFKYGDLPMYVTANGIDDDPHAEQDSLRIYYIKNYVNEALKAYVLDDINLCGYFAYSLSDRSAPKSGFYRYAANQFEPKPSMKHYRKIIDSNGFLGSGTLGRFCPEEYTVCTECGFFQTRK	–	72
